Assays:
[1] = system: U87MG cells; assay: Human Phospho-Kinase Array, U87MG cells treated with SEMA3F; type: cell-based; conditions: 30 minutes
Experimental: FIG. 28A depicts U87MG cells untreated (control) or following treatment with SEMA3F (640 ng/ml) for 30 minutes. Cell lysates were evaluated by phosphoprotein kinase antibody array. FIG. 28B depicts results of the array validated by Western blot analysis. FIG. 28C depicts U87MG cells treated with SEMA3F (640 ng/ml) as a time course up to 60 minutes and were analyzed by Western blot. FIGS. 28B-28C are representative of 3 independent experiments. FIG. 28D depicts U87MG, Jurkat and HUVEC cells treated with SEMA3F (200, 600, 1800 ng/ml, bars from left to right) for 15 minutes (grey bars) or 30 minutes (black bars); as a positive control, HUVEC were treated with VEGF-A (25 ng/ml) for 15 and 30 minutes. In addition, HUVEC were pre-treated with SEMA3F (1800 ng/ml) or PBS as a control for 30 minutes and subsequently VEGF-A (25 ng/ml) was added to the culture for 15 and 30 minutes. PI-3K activity was analyzed by ELISA according to the manufacturer's instructions. Data represent the mean±SD of 3 experiments.
SEMA3F inhibits Akt, mTOR, and S6K phosphorylation. To determine the effect of SEMA3F on intracellular signaling responses, levels of phosphokinases in the NRP2-expressing human glioblastoma cell line U87MG were profiled.
Phospho-kinase array: The Human Phospho-Kinase Array Kit (ARY003) was obtained from R&D Systems. U87MG cells were treated with SEMA3F which was previously found to induce cytoskeletal collapse and inhibit RhoA activity (6). […] Thus, a concentration at 640 ng/ml was optimized to analyze SEMA3F signaling pathways. Cell lysates were collected at 30 minutes after SEMA3F treatment and the levels of phosphoproteins were analyzed with this array, according to the manufacturer's instructions.

[2] = system: VEGF; assay: VEGF protein in conditioned media by ELISA, U87MG cells; type: cell-based, human; conditions: SEMA3F, rapamycin 10 nM or Torin 1 10 nM, 30 minutes prior to DFO, supernatants after 18 hours
Experimental: In each panel data are representative of 3 independent experiments. Bar graphs represent the mean±SD of n=3 experiments performed in triplicate, *, p<0.01 vs. control.
Finally, the effect of SEMA3F on the secretion of VEGF into conditioned media (by ELISA) was determined in the absence or presence of DFO.
The VEGF-A (DVE00) ELISA kit was obtained from R&D Systems (Minneapolis, MN). […] Desferrioxamine (DFO) was purchased from Sigma-Aldrich, and the MEK inhibitor (U0126) was purchased from EMD-Millipore (Billerica, MA). pGL4.74 [hRluc/TK] vector (Promega Madison, WI) was used as an internal control in luciferase assay.

B1: SEMA3F: Human recombinant full-length His-Myc-tagged SEMA3F, secreted by transfected 293T cells and purified; class 3 semaphorin, NRP-2 ligand (protein, listed as Homo sapiens)
chain: MLVAGLLLWASLLTGAWPSFPTQDHLPATPRVRLSFKELKATGTAHFFNFLLNTTDYRILLKDEDHDRMYVGSKDYVLSLDLHDINREPLIIHWAASPQRIEECVLSGKDVNGECGNFVRLIQPWNRTHLYVCGTGAYNPMCTYVNRGRRAQATPWTQTQAVRGRGSRATDGALRPMPTAPRQDYIFYLEPERLESGKGKCPYDPKLDTASALINEELYAGVYIDFMGTDAAIFRTLGKQTAMRTDQYNSRWLNDPSFIHAELIPDSAERNDDKLYFFFRERSAEAPQSPAVYARIGRICLNDDGGHCCLVNKWSTFLKARLVCSVPGEDGIETHFDELQDVFVQQTQDVRNPVIYAVFTSSGSVFRGSAVCVYSMADIRMVFNGPFAHKEGPNYQWMPFSGKMPYPRPGTCPGGTFTPSMKSTKDYPDEVINFMRSHPLMYQAVYPLQRRPLVVRTGAPYRLTTIAVDQVDAADGRYEVLFLGTDRGTVQKVIVLPKDDQELEELMLEEVEVFKDPAPVKTMTISSKRQQLYVASAVGVTHLSLHRCQAYGAACADCCLARDPYCAWDGQACSRYTASSKRRSRRQDVRHGNPIRQCRGFNSNANKNAVESVQYGVAGSAAFLECQPRSPQATVKWLFQRDPGDRRREIRAEDRFLRTEQGLLLRALQLSDRGLYSCTATENNFKHVVTRVQLHVLGRDAVHAALFPPLSMSAPPPPGAGPPTPPYQELAQLLAQPEVGLIHQYCQGYWRHVPPSPREAPGAPRSPEPQDQKKPRNRRHHPPDT
modifications: His-Myc tag
notes: Human recombinant full-length His-Myc-tagged SEMA3F, secreted by transfected 293T cells and purified; class 3 semaphorin, NRP-2 ligand
intensity of dot/phosphoprotein AMPKa1 (T174) ([1]; SEMA3F 640 ng/ml, Image J): 0.269
intensity of dot/phosphoprotein AMPKa2 (T172) ([1]; SEMA3F 640 ng/ml, Image J): 0.300
intensity of dot/phosphoprotein Akt (S473) ([1]; SEMA3F 640 ng/ml, Image J): 0.396
intensity of dot/phosphoprotein Akt (T308) ([1]; SEMA3F 640 ng/ml, Image J): 0.294
intensity of dot/phosphoprotein CREB (S133) ([1]; SEMA3F 640 ng/ml, Image J): 0.295
intensity of dot/phosphoprotein Chk-2 (T68) ([1]; SEMA3F 640 ng/ml, Image J): 0.297
intensity of dot/phosphoprotein ERK1/2 (T202/Y204, T185/Y187) ([1]; SEMA3F 640 ng/ml, Image J): 0.301
intensity of dot/phosphoprotein FAK (Y397) ([1]; SEMA3F 640 ng/ml, Image J): 0.275
intensity of dot/phosphoprotein Fqr (Y412) ([1]; SEMA3F 640 ng/ml, Image J): 0.264
intensity of dot/phosphoprotein Fyn (Y420) ([1]; SEMA3F 640 ng/ml, Image J): 0.276
intensity of dot/phosphoprotein GSK-3a/b (S21/S9) ([1]; SEMA3F 640 ng/ml, Image J): 0.284
intensity of dot/phosphoprotein HSP27 (S78/S82) ([1]; SEMA3F 640 ng/ml, Image J): 0.277
intensity of dot/phosphoprotein Hck (Y411) ([1]; SEMA3F 640 ng/ml, Image J): 0.270
intensity of dot/phosphoprotein JNK pan (T183/Y185, T221/Y223) ([1]; SEMA3F 640 ng/ml, Image J): 0.287
intensity of dot/phosphoprotein Lck (Y394) ([1]; SEMA3F 640 ng/ml, Image J): 0.269
intensity of dot/phosphoprotein Lyn (Y397) ([1]; SEMA3F 640 ng/ml, Image J): 0.269
intensity of dot/phosphoprotein MEK1/2 (S218/S222, S222/S226) ([1]; SEMA3F 640 ng/ml, Image J): 0.277
intensity of dot/phosphoprotein MSK1/2 (S376/S360) ([1]; SEMA3F 640 ng/ml, Image J): 0.293
intensity of dot/phosphoprotein PLCq-1 (Y783) ([1]; SEMA3F 640 ng/ml, Image J): 0.262
intensity of dot/phosphoprotein Paxillin (Y118) ([1]; SEMA3F 640 ng/ml, Image J): 0.264
intensity of dot/phosphoprotein Pyk2 (Y402) ([1]; SEMA3F 640 ng/ml, Image J): 0.251
intensity of dot/phosphoprotein RSK1/2 (S221/S227) ([1]; SEMA3F 640 ng/ml, Image J): 0.307
intensity of dot/phosphoprotein RSK1/2/3 (S380/S386/S377) ([1]; SEMA3F 640 ng/ml, Image J): 0.320
intensity of dot/phosphoprotein STAT1 (Y701) ([1]; SEMA3F 640 ng/ml, Image J): 0.298
intensity of dot/phosphoprotein STAT2 (Y689) ([1]; SEMA3F 640 ng/ml, Image J): 0.305
intensity of dot/phosphoprotein STAT3 (Y705) ([1]; SEMA3F 640 ng/ml, Image J): 0.270
intensity of dot/phosphoprotein STAT4 (Y693) ([1]; SEMA3F 640 ng/ml, Image J): 0.285
intensity of dot/phosphoprotein STAT5a (Y694) ([1]; SEMA3F 640 ng/ml, Image J): 0.281
intensity of dot/phosphoprotein STAT5a/b (Y694/Y699) ([1]; SEMA3F 640 ng/ml, Image J): 0.311
intensity of dot/phosphoprotein STAT5b (Y699) ([1]; SEMA3F 640 ng/ml, Image J): 0.270
intensity of dot/phosphoprotein STAT6 (Y641) ([1]; SEMA3F 640 ng/ml, Image J): 0.304
intensity of dot/phosphoprotein Src (Y419) ([1]; SEMA3F 640 ng/ml, Image J): 0.289
intensity of dot/phosphoprotein TOR (S2448) ([1]; SEMA3F 640 ng/ml, Image J): 0.281
intensity of dot/phosphoprotein Yes (Y426) ([1]; SEMA3F 640 ng/ml, Image J): 0.289
intensity of dot/phosphoprotein b-Catenin ([1]; SEMA3F 640 ng/ml, Image J): 0.323
intensity of dot/phosphoprotein c-Jun (S63) ([1]; SEMA3F 640 ng/ml, Image J): 0.263
intensity of dot/phosphoprotein eNOS (S1177) ([1]; SEMA3F 640 ng/ml, Image J): 0.240
intensity of dot/phosphoprotein p27 (T157) ([1]; SEMA3F 640 ng/ml, Image J): 0.249
intensity of dot/phosphoprotein p27 (T198) ([1]; SEMA3F 640 ng/ml, Image J): 0.242
intensity of dot/phosphoprotein p38a (T180/Y182) ([1]; SEMA3F 640 ng/ml, Image J): 0.268
intensity of dot/phosphoprotein p53 (S15) ([1]; SEMA3F 640 ng/ml, Image J): 0.312
intensity of dot/phosphoprotein p53 (S46) ([1]; SEMA3F 640 ng/ml, Image J): 0.321
intensity of dot/phosphoprotein p53 (S392) ([1]; SEMA3F 640 ng/ml, Image J): 0.312
intensity of dot/phosphoprotein p70 S6 Kinase (T229) ([1]; SEMA3F 640 ng/ml, Image J): 0.264
intensity of dot/phosphoprotein p70 S6 Kinase (T389) ([1]; SEMA3F 640 ng/ml, Image J): 0.241
intensity of dot/phosphoprotein p70 S6 Kinase (T421/S424) ([1]; SEMA3F 640 ng/ml, Image J): 0.299
Ratio AMPKa1 (T174) ([1]; SEMA3F vs Control, 640 ng/ml): 92.7
Ratio AMPKa2 (T172) ([1]; SEMA3F vs Control, 640 ng/ml): 94.5
Ratio Akt (S473) ([1]; SEMA3F vs Control, 640 ng/ml): 77.4
Ratio Akt (T308) ([1]; SEMA3F vs Control, 640 ng/ml): 92.6
Ratio CREB (S133) ([1]; SEMA3F vs Control, 640 ng/ml): 91.3
Ratio Chk-2 (T68) ([1]; SEMA3F vs Control, 640 ng/ml): 93.4
Ratio ERK1/2 (T202/Y204, T185/Y187) ([1]; SEMA3F vs Control, 640 ng/ml): 91.2
Ratio FAK (Y397) ([1]; SEMA3F vs Control, 640 ng/ml): 87.7
Ratio Fqr (Y412) ([1]; SEMA3F vs Control, 640 ng/ml): 94.1
Ratio Fyn (Y420) ([1]; SEMA3F vs Control, 640 ng/ml): 93.1
Ratio GSK-3a/b (S21/S9) ([1]; SEMA3F vs Control, 640 ng/ml): 91.0
Ratio HSP27 (S78/S82) ([1]; SEMA3F vs Control, 640 ng/ml): 94.0
Ratio Hck (Y411) ([1]; SEMA3F vs Control, 640 ng/ml): 91.4
Ratio JNK pan (T183/Y185, T221/Y223) ([1]; SEMA3F vs Control, 640 ng/ml): 91.5
Ratio Lck (Y394) ([1]; SEMA3F vs Control, 640 ng/ml): 94.2
Ratio Lyn (Y397) ([1]; SEMA3F vs Control, 640 ng/ml): 93.7
Ratio MEK1/2 (S218/S222, S222/S226) ([1]; SEMA3F vs Control, 640 ng/ml): 92.8
Ratio MSK1/2 (S376/S360) ([1]; SEMA3F vs Control, 640 ng/ml): 92.4
Ratio PLCq-1 (Y783) ([1]; SEMA3F vs Control, 640 ng/ml): 95.1
Ratio Paxillin (Y118) ([1]; SEMA3F vs Control, 640 ng/ml): 95.8
Ratio Pyk2 (Y402) ([1]; SEMA3F vs Control, 640 ng/ml): 93.1
Ratio RSK1/2 (S221/S227) ([1]; SEMA3F vs Control, 640 ng/ml): 97.8
Ratio RSK1/2/3 (S380/S386/S377) ([1]; SEMA3F vs Control, 640 ng/ml): 98.8
Ratio STAT1 (Y701) ([1]; SEMA3F vs Control, 640 ng/ml): 98.2
Ratio STAT2 (Y689) ([1]; SEMA3F vs Control, 640 ng/ml): 95.3
Ratio STAT3 (Y705) ([1]; SEMA3F vs Control, 640 ng/ml): 93.4
Ratio STAT4 (Y693) ([1]; SEMA3F vs Control, 640 ng/ml): 96.4
Ratio STAT5a (Y694) ([1]; SEMA3F vs Control, 640 ng/ml): 94.8
Ratio STAT5a/b (Y694/Y699) ([1]; SEMA3F vs Control, 640 ng/ml): 90.1
Ratio STAT5b (Y699) ([1]; SEMA3F vs Control, 640 ng/ml): 92.6
Ratio STAT6 (Y641) ([1]; SEMA3F vs Control, 640 ng/ml): 96.3
Ratio Src (Y419) ([1]; SEMA3F vs Control, 640 ng/ml): 91.0
Ratio TOR (S2448) ([1]; SEMA3F vs Control, 640 ng/ml): 91.8
Ratio Yes (Y426) ([1]; SEMA3F vs Control, 640 ng/ml): 94.6
Ratio b-Catenin ([1]; SEMA3F vs Control, 640 ng/ml): 91.6
Ratio c-Jun (S63) ([1]; SEMA3F vs Control, 640 ng/ml): 94.3
Ratio eNOS (S1177) ([1]; SEMA3F vs Control, 640 ng/ml): 93.9
Ratio p27 (T157) ([1]; SEMA3F vs Control, 640 ng/ml): 94.3
Ratio p27 (T198) ([1]; SEMA3F vs Control, 640 ng/ml): 94.0
Ratio p38a (T180/Y182) ([1]; SEMA3F vs Control, 640 ng/ml): 91.8
Ratio p53 (S15) ([1]; SEMA3F vs Control, 640 ng/ml): 96.7
Ratio p53 (S46) ([1]; SEMA3F vs Control, 640 ng/ml): 93.6
Ratio p53 (S392) ([1]; SEMA3F vs Control, 640 ng/ml): 94.0
Ratio p70 S6 Kinase (T229) ([1]; SEMA3F vs Control, 640 ng/ml): 100.0
Ratio p70 S6 Kinase (T389) ([1]; SEMA3F vs Control, 640 ng/ml): 95.6
Ratio p70 S6 Kinase (T421/S424) ([1]; SEMA3F vs Control, 640 ng/ml): 97.4
DFO-induced VEGF protein secretion [2]: significantly reduced
